Test results: US20220281973A1 (TRUEBINDING, published 2022)

Biological target: T1, hLRIG1 Peptide 70 (human)
T1 construct: 20 amino acid peptide of the LRIG1 peptide library
T1 peptide: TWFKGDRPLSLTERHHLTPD
Assay: peptide ELISA of Example 2, as told in Example 3
Method: (§1) To identify the epitopes to which LRIG1 antibodies with and without VISTA-LRIG1 blocking activity bound, a library of 20 amino acid peptides representing portions of LRIG1 was produced, and the ability to bind LRIG1 antibodies was evaluated by ELISA. At least 2 ug/ml of hLRIG1 peptide in 50 μl of PBS or 0.1 ug/ml of full-length human LRIG1 protein (R&D Systems) in 100 μl of PBS was added to the wells of a 96-well ELISA plate (Thermo Fisher, 44-2404-21). After incubating the plate at 4° C. overnight, the plate was washed three times with 300 μl of PBST per well. The plate was then blocked for an hour with 200 μl of 2% BSA in PBST per well at room temperature with gentle rocking. Thereafter, the 2% BSA in PBST was removed and 100 μl of 0.1 ug/ml of antibody in 2% BSA in PBST was added to the wells. The plate was incubated for an hour at room temperature with gentle rocking and then washed three times with 300 μl of PBST per well. Afterwards, 100 μl of anti-mouse IgG-HRP (1:4000) (Jackson ImmunoResearch) or anti-rat IgG HRP (1:4000) (Jackson ImmunoResearch) was added to the wells. The plate was incubated for 30 minutes at room temperature with gentle rocking and then washed three times with 300 μl of PBST per well. 100 μl of TMB substrate (Fisher Scientific, 34029) was then added to each well. The reaction was stopped with 50 μl of 1 M HCl (VWR) per well. The plate was read using a plate reader (Molecular Devices) at absorbance of 450 nm, and signal greater than 0.25 OD was considered evidence of peptide binding.

Binder | binding result
802.4H12.2A9 (antibody, V domains shown, Mouse hybridoma monoclonal) VH: EVQLVESGGGLVKPGGSLKLSCAASGFTFSSYTMSWVRQTPEKTLEWVATISDGGRYTYYPDNVKGRFTISRDNANNNLYLQMSHLKSEDTAMYYCARGWLLRNFDFWGQGTTLTVSS VL: DVVMTQTPLSLPVSLGDQASISCRSSQSIVHSNGNTYLEWYLQKPGQSPKLLIYKVSNRFSGVPDRFSGSGSGTDFTLKISRVEAEDLGVYYCFQGSHVPLTFGAGTKLELK | binds

Biological target: T2, hLRIG1 Peptide 71 (human)
T2 construct: 20 amino acid peptide of the LRIG1 peptide library
T2 peptide: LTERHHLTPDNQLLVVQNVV
Assay: peptide ELISA of Example 2, as told in Example 3
Method: as §1

Binder | binding result
802.4H12.2A9 (antibody, V domains shown, Mouse hybridoma monoclonal) VH: EVQLVESGGGLVKPGGSLKLSCAASGFTFSSYTMSWVRQTPEKTLEWVATISDGGRYTYYPDNVKGRFTISRDNANNNLYLQMSHLKSEDTAMYYCARGWLLRNFDFWGQGTTLTVSS VL: DVVMTQTPLSLPVSLGDQASISCRSSQSIVHSNGNTYLEWYLQKPGQSPKLLIYKVSNRFSGVPDRFSGSGSGTDFTLKISRVEAEDLGVYYCFQGSHVPLTFGAGTKLELK | binds

Each binder was assayed against T3, human LRIG1 extracellular domain fused to a linker-spaced 6-histidine tag, LRIG1-ECD-His (R&D systems, … (human, UniProt Q96JA1 35-794)) (assay: LRIG1 ECD ELISA-positive hybridoma antibodies tested in blocking ELISA on plate-bound LRIG1-ECD-His).
T3 construct: Bought protein; also called human LRIG1-His; hLRIG1-His; not shown: linker-spaced 6-histidine tag
T3 sequence: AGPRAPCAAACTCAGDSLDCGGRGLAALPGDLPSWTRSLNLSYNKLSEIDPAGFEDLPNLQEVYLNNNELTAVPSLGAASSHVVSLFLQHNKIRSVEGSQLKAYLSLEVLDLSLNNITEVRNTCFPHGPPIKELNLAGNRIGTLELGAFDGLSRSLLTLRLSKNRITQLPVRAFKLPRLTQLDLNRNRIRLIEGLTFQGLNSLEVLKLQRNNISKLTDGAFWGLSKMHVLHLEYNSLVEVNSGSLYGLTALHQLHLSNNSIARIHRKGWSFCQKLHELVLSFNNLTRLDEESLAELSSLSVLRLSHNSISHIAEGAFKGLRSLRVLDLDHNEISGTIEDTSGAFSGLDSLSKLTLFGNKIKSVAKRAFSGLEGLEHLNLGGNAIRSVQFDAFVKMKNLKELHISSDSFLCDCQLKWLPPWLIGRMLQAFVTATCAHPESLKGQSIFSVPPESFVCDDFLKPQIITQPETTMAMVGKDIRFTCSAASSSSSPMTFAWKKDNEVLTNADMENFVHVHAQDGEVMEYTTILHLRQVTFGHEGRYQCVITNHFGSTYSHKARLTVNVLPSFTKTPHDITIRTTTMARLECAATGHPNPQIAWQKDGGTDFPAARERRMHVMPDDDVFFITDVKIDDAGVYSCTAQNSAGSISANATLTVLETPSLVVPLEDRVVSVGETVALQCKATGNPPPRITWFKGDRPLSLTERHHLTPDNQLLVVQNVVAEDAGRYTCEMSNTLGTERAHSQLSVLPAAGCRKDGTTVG
Method: Positively scoring wells were evaluated for the ability to block association of LRIG1 and VISTA. To identify LRIG1-targeted antibodies with the ability to block the interaction of LRIG1 and VISTA, purified LRIG1 and VISTA proteins were incubated in the presence of LRIG1-immunization hybridoma supernatants described above, or without antibody, and protein interaction was evaluated by ELISA. Purified human LRIG1 extracellular domain fused to a HIS tag (R&D Systems) was diluted in phosphate buffered saline (PBS) (Corning) to a concentration of 3 μg/ml and 100 μl was added to each well of a 96-well ELISA plate (Thermo Fisher, 44-2404-21). After incubating the plate at 4° C. overnight, the plate was washed three times with 300 μl of PBS with 0.05% TWEEN (VWR) (PBST) per well. The plate was then blocked for an hour with 200 μl of 2% bovine serum albumin (BSA) (Sigma) in PBST per well at room temperature with gentle rocking. Thereafter, the 2% BSA in PBST was removed and 50 μl of hybridoma supernatant diluted to 3.3 ug/mL was added to the wells. The plate was incubated for 10 minutes at room temperature with gentle rocking. Afterwards, 100 ul of 50 nM oligomerized VISTA in 100 ul PBS buffer was added per well. VISTA oligomerization was performed by Klickmer formation. Briefly, 5 nM Klickmer (Immudex) was incubated with 200 nM hVISTA-Fc-Avi-Biotin in PBS and incubated for one hour. The plate was incubated for an hour at room temperature with gentle rocking. Thereafter, the plate was washed three times with 300 μl of PBST per well, and 100 μl of avidin-HRP (1:1000) (Jackson ImmunoResearch) was then added to each well and the plate was incubated at room temperature for 30 minutes with gentle rocking. Thereafter, the plate was washed three times with 300 μl of PBST per well. 100 μl of TMB substrate (Fisher Scientific, 34029) was then added to each well. The reaction was stopped with 50 μl of 1 M HCl (VWR) per well. The plate was read using a spectrophotometer (Molecular Devices) at absorbance of 450 nm. Percent blockade of LRIG1-VISTA interaction was calculated as the fraction of signal obtained in each experimental samples of the no antibody sample less background signal.

Binder | binding result
802.4B6.2F6 (antibody, V domains shown, Mouse hybridoma monoclonal) VH: QVQLQQSGPELVKPGASVKLSCKASGYTFTSYDINWVKQRPGQGLEWIGWIYPRDGTTKYNEKFKGKATLTVDTSSSTAYMEIHSLTSEDSAVYFCAREDYGSSFHNWGQGTTLTVSS VL: NIVMTQSPKSMSMSVGERVTLSCKASEDVDTYVSWYQQKPNQSPKLLIYGASNRYTGVPDRFTGSGSATDFTLTISSVQAEDLADYYCGQSYSYPWTFGGGTKLEIK | binds
802.3B10.2C10 (antibody, V domains shown, Mouse hybridoma monoclonal) VH: DVQLQESGPGLVKPSLSLSLTCTVTGYSITSGYDWHWIRHFPGNILEWMGYISYSGYTNYNPSLKSRISITHDTSKNHFFLKLNSVTTEDTATYYCARDSNWYFDVWGAGTTVTVSS VL: NIVMTQSPKSMSMLVGERVILNCKASENVDTYVSWYQQKPEQSPKLLIYGASNRYTGVPDRFTGSGSATDFTLTISSVQGEDLADYYCGQSHNYPYTFGSGTKLEIK | binds
802.2B7.2D9 (antibody, V domains shown, Mouse hybridoma monoclonal) VH: QVQLKQSGPGLVQPSQSLSITCTVSGFSLTSYGVHWVRQSPGKGLEYLGVIWSGGSTDYNAAFISRLSISKDNSKSQVFFKMNSLRADDTAIYYCARNWAYYSNHYYVMDYWGQGTSVTVSS VL: DIQMTQSPASLYAFVGETVTITCRASENIYSYLAWYHQKQGKSPQLLVYNSNSLAEGVPLRFSGSGSGTQFSLKINSLQPEDFGNYYCQHHYVTPLTFGGGTKLEMK | binds
802.2F4.2C7 (antibody, V domains shown, Mouse hybridoma monoclonal) VH: EVQLQQSGTVLARPGASVKMSCKASGYNFINSWMHWVKQRPGQGLEWIGAFYPGNSDTRYNQKFMGKAKLTAVTSASTAYMEVSSLTNEDSAVYYCTELGGDYWGQGTTLTVSS VL: DVVMTQTPLSLPVSLGDQASISCRSSQSLVHNDGNTYLHWFLQKPGQSPKLLIHKVSNRFSGVPDRFSGSGSGTDFTLKISRVEAEDLGVYFCSQSTHVPYTFGGGTKLEIK | binds
802.3E6.2F9 (antibody, V domains shown, Mouse hybridoma monoclonal) VH: QVQLQQSGAELMKPGASVKISCKVTGHTFSSYWIEWVKQRPGHGLEWIGEILPGKGNTEYNEKFKGKATFTADTSSNTAYMQLSSLTSEDSAVYYCARNFDVWGAGTTVTVSS VL: DVVMTQTPLSLPVSLGDQASISCRSSQSLVHRNGHTYLHWYLQKPGQSPKLLIYKVSNRFSGVPDRFSGSVSGTDFTLKISRVEGEDVGVYFCSQSTHVPYTFGGGTKLEIK | binds
802.1H3.2A4 (antibody, V domains shown, Mouse hybridoma monoclonal) VH: QVQLQQPGDELVKPGASVKLSCKASGYTFTSFWIHWVKQRPGQGLEWIGNIYPGSSSANYNEKFKSKATLTVDTSSSTAYMQLSSLTSDDSAVYYCARSSYRYSYYSWGQGTTLTVSS VL: DVVMTQTPLSLPVSLGDQASISCRSSQSIVHSNGNTFLEWYLQKPGQSPNLLIYKVSNRFSGVPDRFSGSGSGTDFTLKISRVEAEDLGVYYCFQGSHVPLSFGAGTKLELK | binds
802.4B6.2E11 (antibody, V domains shown, Mouse hybridoma monoclonal) VH: QVQLQQPDTELVKPGASVKLSCRASGYTFTSYWINWVKQRPGQGLEWIGNIYPGTSSTNYNEKFKSKATLTVDPSSSTAYMQLSSLTSDDSAVYYCSRSSYRYTYYSWGQGTTLTVSS VL: DVVMTQTPLSLPVSLGDQASISCRSSQSIVQSNGITYLEWYLKKPGQSPNLLIYKVSNRLSGVPDRFSGSGSGTDFTLKISRVEADDLGVYYCFQGSHVPLTFGAGTKLELK | binds
802.3D5.2G4 (antibody, V domains shown, Mouse hybridoma monoclonal) VH: EVKLEESGGGLVQPGGSMTLSCVASGFTFSNYWVNWVRQSPEKGLEWVAQIRLKSENYPTHYAESVKGRFTVSRDDSKSSVYLQMNNLRAEDTGIYYCTGRGYSNYAWGQGTTLTVSS VL: DIVMTQTPLSLPVSLGDQASISCRSSQSIVHSNGNTYLEWYLQKPGQSPKLLIYKVSNRFSGVPDRFSGSGSGTDFTLKISRVEAEDLGVYYCFQGSHFPWTFGGGTKLEIK | binds
802.4H12.2A9 (antibody, V domains shown, Mouse hybridoma monoclonal) VH: EVQLVESGGGLVKPGGSLKLSCAASGFTFSSYTMSWVRQTPEKTLEWVATISDGGRYTYYPDNVKGRFTISRDNANNNLYLQMSHLKSEDTAMYYCARGWLLRNFDFWGQGTTLTVSS VL: DVVMTQTPLSLPVSLGDQASISCRSSQSIVHSNGNTYLEWYLQKPGQSPKLLIYKVSNRFSGVPDRFSGSGSGTDFTLKISRVEAEDLGVYYCFQGSHVPLTFGAGTKLELK | binds
802.3E6.2H9 (antibody, V domains shown, Mouse hybridoma monoclonal) VH: QVQKQQPGAELVMPGASVKLSCKASGYTFTSYWMHWVMQRPGQGLEWIGDIDPSDSYTNYNQQFKGKATLTVDISSSSAYMQLSSLTFEDSAVYYCARARVDFDYWGRGTTLTVSS VL: EIVLTQSPALLAASPGDKVTITCSVSSSISSSTLHWYQQKSGTSPKPWIYGTSNLASGVPVRFSGSGSGTSYSLTISSMEAEDAATYYCQQWSGYPLTFGAGTKLELK | binds
802.4C12.3C5 (antibody, V domains shown, Mouse hybridoma monoclonal) VH: QVQLQQSGGELMKPGASVKLSCKATGYTFTGYWIEWVKQRPGHGLEWIGEILPGSGRTYYNEKFKGKATFTADTSSNTAYMQLSSLTTEDSAIYYCAREIYDGHYEAWYAYWGQGTLVTVSA VL: DVVMTQTPLSLSVTIGQPASISCKSSQSLLYSDGKTYLNWLQQRPGQSPKRLMYQVSKLDPGIPDRFSGSGSETDFTLEISRVEAEDLGVYYCLQGTYYPHTFGSGTKLEIK | binds
802.2F11.2B6 (antibody, V domains shown, Mouse hybridoma monoclonal) VH: QVQLQQSGAELMKPGASVKLSCKATGYTFTGYWIEWVKQRPGHGLEWIGEILPGSGSTHYNEKFKGKATFTADTSSNTAYIQLSSLTTEDSAIYYCEREVYDNDEGAWFANWGQGTLVTVSA VL: DVVMTQTPLSLSVTIGQPASISCKSSQSLLYSDGKTYLNWLQQRPGQSPKRLMYQVSKLDPGIPDRFSGSGSETDFTLKISRVEAEDLGVYYCLQGTYYPHTFGSGTKLEIK | binds
